Patent US20160046672A1, “STAPLING eIF4E INTERACTING PEPTIDES” (AGENCY FOR SCIENCE, TECHNOLOGY AND RESEARCH, priority 2013, published 2016)
Positions of bridges follow the written chain, without caps; N, C: chain ends. Non-standard residues stand in square brackets, D forms with d. R5 = C=CCCC[C@@](C)(N)C(=O)O; S5 = C=CCCC[C@](C)(N)C(=O)O; Aib = CC(C)(N)C(=O)O

Experiments:
circular dichroism = settings: 5 mM sodium phosphate; pH 7.0; ns °C; 0.5 or 2 mg/mL
eIF4E [1] = target: T1, eIF4E (Homo sapiens, UniProt P06730); assay: eIF4E affinity (SPR/FP, method not named); format: binding
T1 construct: made in house
T1 sequence (P06730 whole entry): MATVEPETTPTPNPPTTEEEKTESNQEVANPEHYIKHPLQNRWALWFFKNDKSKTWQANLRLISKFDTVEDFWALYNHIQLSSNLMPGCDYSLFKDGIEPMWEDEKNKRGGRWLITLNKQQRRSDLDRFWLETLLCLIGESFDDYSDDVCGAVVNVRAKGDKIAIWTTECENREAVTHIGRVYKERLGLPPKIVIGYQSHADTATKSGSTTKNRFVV
Method: Apparent Kd values were determined for a variety of molecules via competitive anisotropy anisotropy experiments. Titrations were carried out with the concentrations eIF4E held constant at 200 nM, respectively and the labeled peptide at 50 nM. The competing molecules were then titrated against complex of the FAM labeled peptide and protein. Apparent Kd values were determined by fitting the experimental data to the equations shown below: […]
(§1) Six buffer blanks were first injected to equilibrate the instrument fully and then a solvent correction curve was performed followed by a further two blank injections. […] Using a flow rate of 50 μl/min, compounds were injected for 60 s and dissociation was monitored for 180 s. The data collection rate was 10 Hz. Kds were determined using the BiaEvaluation software (Biacore) and calculated kinetically from the dissociation and association phase data for each of the peptides. The kinetic data were fitted to 1:1 binding models. Each individual peptide Kd was determined from three separate titrations. Within each titration at least two concentration points were duplicated to ensure stability and robustness of the chip surface.

MDA-MB-231 cells [2] = assay: Normalized luminescence / cell viability, FIG. 12A; format: cell-based; settings: MDA-MB-231, increasing peptide concentration
Method: (§2) FIG. 12A is a dot plot representing normalized luminescence in MDA-MB-468 and MDA-MB-231 cells over increased concentration of staple peptides. MDA-MB-468 and MDA-MB-231 cells were lysed and a recombinant luciferase protein was added to the lysed cells.

MDA-MB-468 cells = assay: Normalized luminescence / cell viability, FIG. 12A; format: cell-based; settings: MDA-MB-468, increasing peptide concentration
Method: as §2

MDA-MB-231 cells [3] = assay: Western Blot of protein levels in treated cells, FIG. 12B; format: cell-based; settings: MDA-MB-231, absence or presence of 10% Fetal calf serum, 1% DMSO
Source text: Actin protein is a loading control to indicate that the same amount of proteins was loaded into each well.

eIF4E [4] = target: T1, eIF4E; assay: Competitive fluorescence anisotropy (FP) assay against FAM labeled tracer peptide; format: binding
Method: (§3) Apparent Kd values were determined for a variety of molecules via competitive anisotropy anisotropy experiments. Titrations were carried out with the concentrations eIF4E held constant at 200 nM, respectively and the labeled peptide at 50 nM. […] Apparent Kd values were determined by fitting the experimental data to the equations shown below:
[L]st and [L]t denote labeled ligand and total unlabeled ligand input concentrations, respectively. Kd2 is the dissociation constant of the interaction between the unlabelled ligand and the protein. […] Readings were carried out with an Envision Multilabel Reader (PerkinElmer). […] All titrations were carried out in triplicate. Curve-fitting was carried out using Prism 4.0 (GraphPad).

[5] = Circular dichroism, percent α-helicity in solution; format: physicochemical; settings: CD, 5 mM sodium phosphate buffer pH 7.0
Method: CD was measured on a JASCO J-810 spectropolarimeter, and spectra were either recorded with a quartz cuvette (Helmer) with a pathlength of 0.01 cm or 0.1 cm in 5 mM sodium phosphate buffer (pH 7.0). FUV CD spectra were recorded from 260 nm to 200 nm at a peptide concentration of either 2 mg/ml or 0.5 mg/ml, respectively. The CD signal was converted into mean residue ellipticity in units of degree·cm^2·dmol^−1·residue^−1. CD spectra were recorded at a data pitch of 0.2 nm at 50 nm min^−1, a response time of 2 s, and a bandwidth of […]. Once converted to mean residue ellipticity, percent α-helicity can be calculated with equation (1) and (2): […]

[6] = target: T2, human eukaryotic translation initiation factor 4E (eIF4E), full-length (human, UniProt P06730 2-217); assay: SPR, Biacore T100, eIF4E immobilised on CM5, peptide as analyte, kinetic 1:1 fit; SPR (first value of the SPR/FP cell); weak, about 12 uM
T2 construct: mature; For SPR it was amine-coupled to a CM5 chip with m7GTP present in a 2:1 ratio. 'mature' is used here for full length; also called full length eIF4E
T2 sequence (P06730 2-217): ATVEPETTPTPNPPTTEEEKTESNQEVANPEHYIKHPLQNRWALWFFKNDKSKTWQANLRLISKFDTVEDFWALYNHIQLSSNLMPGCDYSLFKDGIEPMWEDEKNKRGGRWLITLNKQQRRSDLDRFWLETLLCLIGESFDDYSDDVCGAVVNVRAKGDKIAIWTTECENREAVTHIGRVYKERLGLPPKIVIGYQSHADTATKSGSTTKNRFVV
Method: (§4) For stock peptide solutions, the compounds were dissolved in 100% DMSO to a concentration of 10 mM; further dilutions of the peptide stock solutions into DMSO and/or running buffer were performed immediately prior to analysis. Running buffer consisted of 10 mM Hepes pH 7.6, 0.15M NaCl, 1 mM DTT and 0.1% Tween20. Stock/DMSO diluted peptide solutions were diluted into 1.03× running buffer to make a peptide solution with 3% DMSO final concentration. […] Surface Plasmon resonance experiments were performed on a Biacore T100 machine.
(§5) eIF4E was immobilized on a CM5 sensor chip. The CM5 chip was conditioned with a 6 s injection of 100 mM HCL, followed by a 6 s injection of 0.1% SDS and completed with a 6 s injection of 50 mM NaOH at a flow rate of 100 μl/min. […]
as §1, with “The data collection rate was 10 Hz.” left out, “The kinetic data were fitted to 1:1 binding models.” left out, “titrations.” for “titrations. Within each titration at least two concentration points were duplicated to ensure stability and robustness of the chip surface.”

[7] = target: T2, human eukaryotic translation initiation …; assay: Kd ratio from Table 2 (SPR/FP; which assay is not said)
[8] = target: T2, human eukaryotic translation initiation …; assay: competitive fluorescence anisotropy (FP), displacement of FAM tracer from eIF4E, apparent Kd
Method: as §3, with “below: […]” for “below:”

[9] = target: T2, human eukaryotic translation initiation …; assay: SPR, Biacore T100, eIF4E immobilised on CM5, peptide as analyte, kinetic 1:1 fit
Method: as §4
eIF4E was immobilized on a CM5 sensor chip. The CM5 chip was conditioned with a 6 s injection of 100 mM HCL, followed by a 6 s injection of 0.1% SDS and completed with a 6 s injection of 50 mM NaOH at a flow rate of 100 μl/min. […] Purified eIF4E was diluted with 10 mM sodium acetate buffer (pH 5.0) to a final concentration of 0.5 μM with m⁷ GTP present in a 2:1 ratio in order to stabilize eIF4E. The amount of eIF4E immobilized on the activated surface was controlled by altering the contact time of the protein solution and was approximately 1000 RU. After the immobilization of the protein, a 7-min injection (at 10 μl min⁻¹) of 1 M ethanolamine (pH 8.5) was used to quench excess active succinimide ester groups.
as §1, with “titrations.” for “titrations. Within each titration at least two concentration points were duplicated to ensure stability and robustness of the chip surface.”

[10] = target: T2, human eukaryotic translation initiation …; assay: SPR, Biacore T100, eIF4E immobilised on CM5, peptide as analyte, kinetic 1:1 fit; SPR (first value of the SPR/FP cell); weak, about 9 uM
Method: as §4, §5
as §1, with “The data collection rate was 10 Hz.” left out, “The kinetic data were fitted to 1:1 binding models.” left out, “titrations.” for “titrations. Within each titration at least two concentration points were duplicated to ensure stability and robustness of the chip surface.”

[11] = target: T2, human eukaryotic translation initiation …; assay: Kd ratio from Table 2 (SPR/FP; which assay is not said; the reference is the linear template eIF4G^D5S)

CC(=O)N[C@@H](CCCCN)C(=O)N[C@@H](CCCCN)C(=O)N[C@@H](CCCNC(=N)N)C(=O)N[C@@H](Cc1ccc(O)cc1)C(=O)N[C@@H](CO)C(=O)N[C@@H](CCCNC(=N)N)C(=O)N[C@@H](CCC(=O)O)C(=O)N[C@]1(C)CCCC=CCCC[C@@](C)(C(=O)N[C@@H](Cc2ccccc2)C(N)=O)NC(=O)[C@H](CC(C)C)NC(=O)[C@H](CC(C)C)NC1=O [sTIP-03, KKRYSRE*LL*F]
helicity (circular dichroism): 45%
fold decrease / improvement in Kd over eIF4G^D5S (eIF4E [1]; stronger binding): 17 fold
cell viability (normalized luminescence) (MDA-MB-231 cells [2]): decreases cell viability in a dose-dependent manner
cell viability (normalized luminescence) (MDA-MB-468 cells): decreases cell viability in a dose-dependent manner
Bcl-XL protein levels (MDA-MB-231 cells [3]): down-regulates
survivin protein levels (MDA-MB-231 cells [3]): down-regulates

CC(=O)N[C@@H](CCCCN)C(=O)N[C@@H](CCCCN)C(=O)N[C@@H](CCCNC(=N)N)C(=O)N[C@@H](Cc1ccc(O)cc1)C(=O)N[C@@H](CO)C(=O)N[C@@H](CCCNC(=N)N)C(=O)N[C@@H](CCC(=O)O)C(=O)NC(C)(C)C(=O)N[C@@H](CC(C)C)C(=O)N[C@@H](CC(C)C)C(=O)NCC(=O)NC(C)(C)C(N)=O [TIP-02, KKRYSREXLLGX]
helicity (circular dichroism): 0%
displacement of the FAM labeled peptide in the competition assay (eIF4E [4]): failed to displace the FAM labeled peptide
affinity / binding to eIF4E (in words) (eIF4E [1]): greatly reduced affinity for eIF4E
Helicity (%) [5]: 0/ %

B1: TIP-01^Tr (peptide)
peptide: Ac-KKRYSR[Aib]FLL[Aib]-NH2
SMILES: CC(=O)N[C@@H](CCCCN)C(=O)N[C@@H](CCCCN)C(=O)N[C@@H](CCCNC(=N)N)C(=O)N[C@@H](Cc1ccc(O)cc1)C(=O)N[C@@H](CO)C(=O)N[C@@H](CCCNC(=N)N)C(=O)NC(C)(C)C(=O)N[C@@H](Cc1ccccc1)C(=O)N[C@@H](CC(C)C)C(=O)N[C@@H](CC(C)C)C(=O)NC(C)(C)C(N)=O
notes: Printed KKRYSRXFLLX; TIP-01 with the C-terminal F12 removed
Kd [6]: 12100 nM

B2: sTIP-01 (peptide)
peptide: Ac-KKRYSR[S5]FLL[S5]F-NH2
modifications: staple 7-11
SMILES: CC(=O)N[C@@H](CCCCN)C(=O)N[C@@H](CCCCN)C(=O)N[C@@H](CCCNC(=N)N)C(=O)N[C@@H](Cc1ccc(O)cc1)C(=O)N[C@@H](CO)C(=O)N[C@@H](CCCNC(=N)N)C(=O)N[C@@]1(C)CCCC=CCCC[C@@](C)(C(=O)N[C@@H](Cc2ccccc2)C(N)=O)NC(=O)[C@H](CC(C)C)NC(=O)[C@H](CC(C)C)NC(=O)[C@H](Cc2ccccc2)NC1=O
notes: Printed KKRYSR*FLL*F, * = staple position
fold increase in Kd over eIF4G^D5S [7]: ~4.5 fold
Kd [8]: 558 nM

B3: TIP-01 (peptide)
peptide: Ac-KKRYSR[Aib]FLL[Aib]F-NH2
SMILES: CC(=O)N[C@@H](CCCCN)C(=O)N[C@@H](CCCCN)C(=O)N[C@@H](CCCNC(=N)N)C(=O)N[C@@H](Cc1ccc(O)cc1)C(=O)N[C@@H](CO)C(=O)N[C@@H](CCCNC(=N)N)C(=O)NC(C)(C)C(=O)N[C@@H](Cc1ccccc1)C(=O)N[C@@H](CC(C)C)C(=O)N[C@@H](CC(C)C)C(=O)NC(C)(C)C(=O)N[C@@H](Cc1ccccc1)C(N)=O
notes: Printed KKRYSRXFLLXF, X = AIB; also called diAIB derivative of sTIP-01
fold decrease in Kd over eIF4G^D5S [7]: ~2 fold
Kd [9]: 59.7 nM
Kd [8]: 52.4 nM

B4: TIP-02 (peptide)
peptide: Ac-KKRYSRE[Aib]LLG[Aib]-NH2
SMILES: CC(=O)N[C@@H](CCCCN)C(=O)N[C@@H](CCCCN)C(=O)N[C@@H](CCCNC(=N)N)C(=O)N[C@@H](Cc1ccc(O)cc1)C(=O)N[C@@H](CO)C(=O)N[C@@H](CCCNC(=N)N)C(=O)N[C@@H](CCC(=O)O)C(=O)NC(C)(C)C(=O)N[C@@H](CC(C)C)C(=O)N[C@@H](CC(C)C)C(=O)NCC(=O)NC(C)(C)C(N)=O
notes: Printed KKRYSREXLLGX, X = AIB; also called AIB derivative of sTIP-02
Kd [10]: 9190 nM

B5: sTIP-03 (peptide)
peptide: Ac-KKRYSRE[R5]LL[S5]F-NH2
modifications: staple 8-11
notes: Printed KKRYSRE*LL*F, * = staple position
fold improvement in Kd [11]: 17 fold
